Source: paper PMC3823998, “Structural and Functional Characterization of the Redβ Recombinase from Bacteriophage λ” (PLoS ONE, 2013)
Positions count from the first letter of the chain named.

How the values were obtained:
Assay in all cases: EMSA; glutaraldehyde-fixed; ssDNA EMSA: 10 nM DNA, 50 mM potassium phosphate pH 6.0, 5 mM EDTA, 5% glycerol, 0.1 mg/ml BSA, 37°C, 40 min, then 0.1% glutaraldehyde; second-strand EMSA: 5 nM each strand, 20 mM Tris-HCl pH 7.5, 5 mM MgCl2, 1 mM DTT, 0.1 mg/ml BSA, 37°C
Redβ D80A = biological target: T1, Redβ D80A (Bacteriophage λ (Enterobacteria phage λ), UniProt P03698 1-261, D80A); conditions: protein: recombinant; tags: His6 removed; N-terminal GSH left; label: 5' Cy3
T1 sequence: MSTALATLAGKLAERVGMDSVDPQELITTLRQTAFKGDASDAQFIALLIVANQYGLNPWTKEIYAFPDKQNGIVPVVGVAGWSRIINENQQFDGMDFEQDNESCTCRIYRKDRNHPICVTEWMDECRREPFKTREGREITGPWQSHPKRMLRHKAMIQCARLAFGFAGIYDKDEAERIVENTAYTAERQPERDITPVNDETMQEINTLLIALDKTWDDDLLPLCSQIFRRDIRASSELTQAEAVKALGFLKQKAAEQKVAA

Redβ K132A = biological target: T2, Redβ K132A (Bacteriophage λ (Enterobacteria phage λ), UniProt P03698 1-261, K132A); conditions: protein: recombinant; tags: His6 removed; N-terminal GSH left; label: 5' Cy3
T2 sequence: T1 sequence with A80D, K132A

Redβ Y64A = biological target: T3, Redβ Y64A (Bacteriophage λ (Enterobacteria phage λ), UniProt P03698 1-261, Y64A); conditions: protein: recombinant; tags: His6 removed; N-terminal GSH left; label: 5' Cy3
T3 sequence: T1 sequence with Y64A, A80D

Redβ R152A = biological target: T4, Redβ R152A (Bacteriophage λ (Enterobacteria phage λ), UniProt P03698 1-261, R152A); conditions: protein: recombinant; tags: His6 removed; N-terminal GSH left; label: 5' Cy3
T4 sequence: T1 sequence with A80D, R152A

Redβ K148A = biological target: T5, Redβ K148A (Bacteriophage λ (Enterobacteria phage λ), UniProt P03698 1-261, K148A); conditions: protein: recombinant; tags: His6 removed; N-terminal GSH left; label: 5' Cy3
T5 sequence: T1 sequence with A80D, K148A

Redβ WT = biological target: T6, Redβ WT (Bacteriophage λ (Enterobacteria phage λ), UniProt P03698 1-261); conditions: protein: recombinant; tags: N-terminal His6 removed by thrombin; Gly-Ser-His left before Met1; label: 5' Cy3
T6 sequence: T1 sequence with A80D

In the case of TGCGGATGGCTTAGAGCTTAATTGCTGAATCTGGTGCTGTAGCTCAACAT (ssDNA) [50-minus ssDNA], the binding signal (Redβ D80A) is reported as 87 % of WT binding at 3 µM protein, the binding signal (Redβ K132A) is reported as 82 % of WT binding at 3 µM protein and the binding signal (Redβ Y64A) is reported as 98 % of WT binding at 3 µM protein. The binding signal (Redβ R152A) was 13 % of WT binding at 3 µM protein, the binding signal (Redβ K148A) was 43 % of WT binding at 3 µM protein and the binding result (Redβ WT) was “binds”.
